The text below walks through data of paper doi:10.1101/2023.02.23.529646 (bioRxiv, 2023).

Test in all cases: mass photometry
In one assay the target is T1, VLCAD_(ACAD9) (human, UniProt P49748 72-655, 437MGGMGFM443 to 437LGGLGYT443).
T1 sequence: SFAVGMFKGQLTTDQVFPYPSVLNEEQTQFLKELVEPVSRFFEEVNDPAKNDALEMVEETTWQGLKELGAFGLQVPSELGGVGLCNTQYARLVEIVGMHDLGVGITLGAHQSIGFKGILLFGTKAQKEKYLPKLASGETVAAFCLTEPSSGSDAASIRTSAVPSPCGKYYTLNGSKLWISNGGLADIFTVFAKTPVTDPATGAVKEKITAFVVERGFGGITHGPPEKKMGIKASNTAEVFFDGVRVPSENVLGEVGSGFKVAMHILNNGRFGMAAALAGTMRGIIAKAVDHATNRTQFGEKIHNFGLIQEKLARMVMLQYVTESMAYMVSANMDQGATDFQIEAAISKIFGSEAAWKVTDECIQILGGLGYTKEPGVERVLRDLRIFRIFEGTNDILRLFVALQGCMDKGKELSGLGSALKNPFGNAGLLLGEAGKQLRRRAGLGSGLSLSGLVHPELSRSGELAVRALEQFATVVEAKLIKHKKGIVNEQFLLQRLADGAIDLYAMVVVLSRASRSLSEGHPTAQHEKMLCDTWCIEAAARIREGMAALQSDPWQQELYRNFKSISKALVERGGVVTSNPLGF

Another assay concerns the target T2, ACAD9_(A184S/SR194TS) (human, UniProt Q9H845 38-621, A184S | SR194TS).
T2 sequence: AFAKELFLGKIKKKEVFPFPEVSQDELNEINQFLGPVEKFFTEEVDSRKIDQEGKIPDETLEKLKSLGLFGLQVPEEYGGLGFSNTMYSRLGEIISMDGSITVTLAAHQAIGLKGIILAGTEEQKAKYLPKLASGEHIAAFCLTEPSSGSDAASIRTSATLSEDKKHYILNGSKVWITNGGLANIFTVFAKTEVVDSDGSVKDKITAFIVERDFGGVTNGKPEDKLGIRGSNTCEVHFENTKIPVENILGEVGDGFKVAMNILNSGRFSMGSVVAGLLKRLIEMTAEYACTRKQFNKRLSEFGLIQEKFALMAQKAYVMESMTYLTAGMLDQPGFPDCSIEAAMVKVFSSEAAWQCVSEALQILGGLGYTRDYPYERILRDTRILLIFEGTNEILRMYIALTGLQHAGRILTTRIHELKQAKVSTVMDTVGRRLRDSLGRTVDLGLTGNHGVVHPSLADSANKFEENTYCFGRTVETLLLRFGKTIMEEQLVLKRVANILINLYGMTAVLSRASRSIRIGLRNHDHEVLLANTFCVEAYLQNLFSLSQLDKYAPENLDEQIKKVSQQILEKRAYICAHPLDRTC

The next assay concerns the target T3, ACAD9WT (res. 38-621) (human, UniProt Q9H845 38-621).
T3 sequence: T2 sequence with S147A, T157S, S158R

Where a chain is given by its changes, count along the chain named.

B1: ECSIT_(CTER) (residues 221-431) (domain or fragment)
chain: QDPVELAMFGLRHMEPDLSARVTIYQVPLPKDSTGAADPPQPHIVGIQSPDQQAALARHNPARPVFVEGPFSLWLRNKCVYYHILRADLLPPEEREVEETPEEWNLYYPMQLDLEYVRSGWDNYEFDINEVEEGPVFAMCMAGAHDQATMAKWIQGLQETNPTLAQIPVVFRLAGSTRELQTSSAGLEEPPLPEDHQEEDDNLQRQQQGQS
For the molecule B1, the binding result with VLCAD_(ACAD9) and with ACAD9_(A184S/SR194TS) was “binds” throughout. Further, in the assay with ACAD9WT (res. 38-621), the “stoichiometry N” value is 2 ECSIT_(CTER) monomers per ACAD9 dimer.
